These results are taken from patent publication US20180009899A1 (CORVUS PHARMACEUTICALS, published 2018).

To fix the notation:
T1: Cellular CD73 on MDA-MB-231 human breast cancer cells (human, UniProt P21589 27-549)
T1 construct: whole, on cells; Endogenous CD73 on MDA-MB-231 cells; also called 5'-nucleotidase; ecto-5'-nucleotidase
T1 sequence (looked up): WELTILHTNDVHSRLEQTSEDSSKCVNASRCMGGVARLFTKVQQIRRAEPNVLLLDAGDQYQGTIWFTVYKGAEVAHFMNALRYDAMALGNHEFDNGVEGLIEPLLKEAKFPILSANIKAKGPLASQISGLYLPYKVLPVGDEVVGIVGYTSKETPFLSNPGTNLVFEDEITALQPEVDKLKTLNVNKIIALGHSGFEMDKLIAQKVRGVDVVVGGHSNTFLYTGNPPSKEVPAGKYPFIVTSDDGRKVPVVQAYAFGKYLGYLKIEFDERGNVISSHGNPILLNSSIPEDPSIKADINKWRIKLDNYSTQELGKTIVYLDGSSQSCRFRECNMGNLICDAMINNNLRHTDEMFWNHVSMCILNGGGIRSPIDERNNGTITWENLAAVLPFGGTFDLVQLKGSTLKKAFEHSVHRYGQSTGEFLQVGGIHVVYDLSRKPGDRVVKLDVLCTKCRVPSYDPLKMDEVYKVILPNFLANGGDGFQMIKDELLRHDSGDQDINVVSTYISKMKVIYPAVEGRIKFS

B1: CPX-006 (glycosylated) (antibody, human IgG1, kappa, N297Q, V domains shown)
VH: QVQLVQSGAEVEKPGASVKVSCKASGYTFTSYWITWVRQAPGQGLEWMGDIYPGSGNTNYNEKFKTRVTITADKSTSTAYMELSSLRSEDTAVYYCAKEGGLTTEDYALDYWGQGTLVTVSS
VL: EIVLTQSPATLSLSPGERATLSCRASKNVSTSGYSYMHWYQQKPGQAPRLLIYLASNLESGIPPRFSGSGYGTDFTLTINNIESEDAAYYFCQHSRELPFTFGQGTKVEIKR
modifications: N-linked glycosylation on CDR L1 (NXS motif at Kabat 27A-27C)
notes: Humanized anti-CD73 antibody with the CDRs of mouse 1E9; also called BAP094-hum07; glycosylated antibody
B2: CPX-008 (antibody, V domains shown)
VH: QVQLVQSGAEVEKPGASVKVSCKASGYTFTSYWITWVRQAPGQGLEWMGDIYPGSGNTNYNEKFKTRVTITADKSTSTAYMELSSLRSEDTAVYYCAKEGGLTTEDYALDYWGQGTLVTV
VL: EIVLTQSPATLSLSPGERATLSCRASKQVSTSGYSYMHWYQQKPGQAPRLLIYLASNLESGIPPRFSGSGYGTDFTLTINNIESEDAAYYFCQHSRELPFTFGQGTKVEIK
notes: also called aglycosylated antibody
B3: CPX-012 (antibody, V domains shown)
VH: QVQLVQSGAEVEKPGASVKVSCKASGYTFTSYWITWVRQAPGQGLEWMGDIYPGSGNTNYNEKFKTRVTITADKSTSTAYMELSSLRSEDTAVYYCAKEGGLTTEDYALDYWGQGTLVTV
VL: AIQLTQSPSSLSASVGDRVTITCRASKQVSTSGYSYMHWYQQKPGQAPRLLIYLASNLESGVPSRFSGSGSGTDFTFTISSLEAEDAATYYCQHSRELPFTFGQGTKVEIK
B4: CPX-009 (antibody, V domains shown)
VH: QVQLVQSGAEVEKPGASVKVSCKASGYTFTSYWITWVRQAPGQGLEWMGDIYPGSGNTNYNEKFKTRVTITADKSTSTAYMELSSLRSEDTAVYYCAKEGGLTTEDYALDYWGQGTLVTV
VL: EIVLTQSPATLSLSPGERATLSCRASKAVSTSGYSYMHWYQQKPGQAPRLLIYLASNLESGIPPRFSGSGYGTDFTLTINNIESEDAAYYFCQHSRELPFTFGQGTKVEIK
notes: A at Kabat 27A of CDR L1, made in the CPX-006 light chain
B5: CPX-014 (antibody, V domains shown)
VH: QVQLVQSGAEVEKPGASVKVSCKASGYTFTSYWITWVRQAPGQGLEWMGDIYPGSGNTNYNEKFKTRVTITADKSTSTAYMELSSLRSEDTAVYYCAKEGGLTTEDYALDYWGQGTLVTV
VL: EIVLTQSPATLSLSPGERATLSCRASKDVSTSGYSYMHWYQQKPGQAPRLLIYLASNLESGIPPRFSGSGYGTDFTLTINNIESEDAAYYFCQHSRELPFTFGQGTKVEIK
notes: D at Kabat 27A of CDR L1, made in the CPX-006 light chain
B6: CPX-011 (antibody, V domains shown)
VH: QVQLVQSGAEVEKPGASVKVSCKASGYTFTSYWITWVRQAPGQGLEWMGDIYPGSGNTNYNEKFKTRVTITADKSTSTAYMELSSLRSEDTAVYYCAKEGGLTTEDYALDYWGQGTLVTV
VL: EIVLTQSPATLSLSPGERATLSCRASKNVATSGYSYMHWYQQKPGQAPRLLIYLASNLESGIPPRFSGSGYGTDFTLTINNIESEDAAYYFCQHSRELPFTFGQGTKVEIK
notes: A at Kabat 27C of CDR L1, made in the CPX-006 light chain

For the assay, the target named is T1, Cellular CD73 on MDA-MB-231 human …. The assay can be described thus: flow cytometry on MDA-MB-231 cells, PE anti-human secondary.
With B1, the binding result was “binds”.
In the case of B2, the binding result is reported as “binds”.
As for B3, the binding result was “binds”.
As to B4, the binding result is “binds”.
On to B5, for which the binding result is “binds”.
The entry for B6 is “binds”.
